In paper PMC11863771 (Cell Communication and Signaling : CCS, 2025) one finds BRET50 data, which are given here for five molecules.

In one experiment the target is T1, CXCR4-Rluc8 (human, UniProt P61073 1-352).
T1 construct: C-X-C chemokine receptor type 4 (CXCR4), human cDNA from the Missouri S&T cDNA Resource Center; source: HEK293A, transiently transfected, in cells; not shown: Rluc8, C-terminal, kept
In words: FRET or BRET; quantitative BRET saturation in HEK293A cells: fixed amount of Rluc8-tagged donor, increasing amounts of mCit-tagged acceptor, coelenterazine h 5 µM; no ligand, no further receptor coexpressed. Particulars: partners not purified. A general note: Bioluminescence resonance energy transfer reports proximity on the nanometre scale.

Experiment [1] has as its target T2, CXCR4-Rluc8 (human), P61073.
T2 chain: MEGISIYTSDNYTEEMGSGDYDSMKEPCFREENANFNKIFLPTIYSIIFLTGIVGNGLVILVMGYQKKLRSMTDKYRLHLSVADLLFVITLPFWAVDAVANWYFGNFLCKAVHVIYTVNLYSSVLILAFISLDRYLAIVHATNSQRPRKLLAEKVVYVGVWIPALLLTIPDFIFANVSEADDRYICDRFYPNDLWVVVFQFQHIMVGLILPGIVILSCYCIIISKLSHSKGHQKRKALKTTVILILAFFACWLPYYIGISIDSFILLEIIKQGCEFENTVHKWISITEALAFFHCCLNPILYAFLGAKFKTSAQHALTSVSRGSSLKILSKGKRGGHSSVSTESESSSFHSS
Described as above. Particulars: remark: other sources report otherwise.

Experiment [2] shares this target. The description is as above. Particulars: remark: other sources report otherwise.
For experiment [3] the target is unchanged. In words: FRET or BRET; quantitative BRET saturation in HEK293A cells, CXCR4-Rluc8 and CXCR4-mCit, with S1P1 coexpressed, with CXCL12 (10 nM). Conditions: remark: other sources report otherwise.
The target is the same in experiment [4]. As to the kind of experiment: FRET or BRET; quantitative BRET saturation in HEK293A cells, CXCR4-Rluc8 and CXCR4-mCit, with S1P1 coexpressed, vehicle. Conditions: remark: other sources report otherwise.
Experiment [5] has the same target. In words: FRET or BRET; quantitative BRET saturation in HEK293A cells, CXCR4-Rluc8 and CXCR4-mCit, without S1P1, with CXCL12 (10 nM). Particulars: remark: other sources report otherwise.

B1: mCit-tagged S1P1(TM4) (receptor, human)
chain: MGPTSVPLVKAHRSSVSDYVNYDIIVRHYNYTGKLNISADKENSIKLTSVVFILICCFIILENIFVLLTIWKTKKFHRPMYYFIGNLALSDLLAGVAYTANLLLSGATTYKLTPAQWFLREGSMFVALSASVFSLLAIAIERYITMLKMKLHNGNKRHRVFLLIGMCWLIAFTLGALPILGWNCLHNLPDCSTVLPLYHKHYILFCTTVFTLLLLSIVILYCRIYSLVRTRSRRLTFRKNISKASRSSEKSLALLKTVIIVLSVFIACWAPLFILLLLDVGCKVKTCDILFRAEYFLVLAVLNSGTNPIIYTLTNKEMRRAFIRIMSCCKCPSGDSAGKFKRPIIAGMEFSRSKSDNSSHPQKDEGDNPETIMSSGNVNSSS
notes: S1P1, human, the part before the printed TM4 stretch (SNNFRL...); TM4 of S1P3, human, put in place of TM4 of S1P1; S1P1, human, the part after the printed TM4 stretch (...ALSSCS); TM4 of S1P1 ([residues removed]) replaced with TM4 of S1P3; source: HEK293A, transiently transfected, in cells; not shown: mCitrine (mCit), C-terminal, kept
In the experiment with CXCR4-Rluc8, B1 showed a BRET50 of 7.19 ± 0.559.

B2: mCit-tagged S1P3(TM3) (receptor, human)
chain: MATALPPRLQPVRGNETLREHYQYVGKLAGRLKEASEGSTLTTVLFLVICSFIVLENLMVLIAIWKNNKFHNRMYFFIGNLALCDLLAGIAYKVNILMSGKKTFKLTPAQWFLREGSMFVALSASVFSLLAIAIERYITMLKMKLHNGNKRHRVFLLIGMCWLIAFTLGALPILGWNCLHNLPDCSTILPLYSKKYIAFCISIFTAILVTIVILYARIYFLVKSSSRKVANHNNSERSMALLRTVVIVVSVFIACWSPLFILFLIDVACRVQACPILFKAQWFIVLAVLNSAMNPVIYTLASKEMRRAFFRLVCNCLVRGRGARASPIQPALDPSRSKSSSSNNSSHSPKVKEDLPHTAPSSCIMDKNAALQNGIFCN
notes: S1P3, human, the part before the printed TM3 stretch (SLSPTV...); TM3 of S1P1, human, put in place of TM3 of S1P3; S1P3, human, the part after the printed TM3 stretch (...RPYDA); TM3 of S1P3 ([residues removed]) replaced with TM3 of S1P1; source: HEK293A, transiently transfected, in cells; not shown: mCitrine (mCit), C-terminal, kept
Consider B2, for which, in the experiment with CXCR4-Rluc8, the BRET50 stood at 6.97 ± 0.473.

B3: mCit-tagged S1P1(TM3) (receptor, human)
chain: MGPTSVPLVKAHRSSVSDYVNYDIIVRHYNYTGKLNISADKENSIKLTSVVFILICCFIILENIFVLLTIWKTKKFHRPMYYFIGNLALSDLLAGVAYTANLLLSGATTYSLSPTVWFLREGSMFVALGASTCSLLAIAIERHLTMIKMRPYDASNNFRLFLLISACWVISLILGGLPIMGWNCISALSSCSTVLPLYHKHYILFCTTVFTLLLLSIVILYCRIYSLVRTRSRRLTFRKNISKASRSSEKSLALLKTVIIVLSVFIACWAPLFILLLLDVGCKVKTCDILFRAEYFLVLAVLNSGTNPIIYTLTNKEMRRAFIRIMSCCKCPSGDSAGKFKRPIIAGMEFSRSKSDNSSHPQKDEGDNPETIMSSGNVNSSS
notes: S1P1, human, the part before the printed TM3 stretch (KLTPAQ...); TM3 of S1P3, human, put in place of TM3 of S1P1; S1P1, human, the part after the printed TM3 stretch (...KLHNG); TM3 of S1P1 ([residues removed]) replaced with TM3 of S1P3; source: HEK293A, transiently transfected, in cells; not shown: mCitrine (mCit), C-terminal, kept
With B3, the BRET50 with CXCR4-Rluc8 came to 7.24 ± 0.501.

B4: mCit-tagged S1P3(TM4) (receptor, human)
chain: MATALPPRLQPVRGNETLREHYQYVGKLAGRLKEASEGSTLTTVLFLVICSFIVLENLMVLIAIWKNNKFHNRMYFFIGNLALCDLLAGIAYKVNILMSGKKTFSLSPTVWFLREGSMFVALGASTCSLLAIAIERHLTMIKMRPYDASNNFRLFLLISACWVISLILGGLPIMGWNCISALSSCSTILPLYSKKYIAFCISIFTAILVTIVILYARIYFLVKSSSRKVANHNNSERSMALLRTVVIVVSVFIACWSPLFILFLIDVACRVQACPILFKAQWFIVLAVLNSAMNPVIYTLASKEMRRAFFRLVCNCLVRGRGARASPIQPALDPSRSKSSSSNNSSHSPKVKEDLPHTAPSSCIMDKNAALQNGIFCN
notes: S1P3, human, the part before the printed TM4 stretch (NKRHRV...); TM4 of S1P1, human, put in place of TM4 of S1P3; S1P3, human, the part after the printed TM4 stretch (...NLPDCS); TM4 of S1P3 ([residues removed]) replaced with TM4 of S1P1; source: HEK293A, transiently transfected, in cells; not shown: mCitrine (mCit), C-terminal, kept
On to B4, for which the BRET50 with CXCR4-Rluc8 was 12.7 ± 0.687.

B5: CXCR4-mCit, P61073 1-352 (receptor)
chain: T2 chain
In the case of B5, the BRET50 in experiment [1] was 15.6; in experiment [2] it was 2.74; in experiment [3], 20.1; in experiment [4] it was 22.8; in experiment [5], 9.53.
